Experimental data: publication PMC9348664, “PFKFB4 interacts with ICMT and activates RAS/AKT signaling-dependent cell migration in melanoma” (Life Science Alliance, 2022)

Target: the molecule itself
Assay: two-hybrid; MaMTH (mammalian membrane split-ubiquitin two-hybrid) in MaMTH-modified HEK293T cells; bait fused to Cub-GAL4, prey fused to Nub; GAL4-driven luciferase normalised to Renilla

B1: human PFKFB4 as MaMTH fusions (PFKFB4-Cub-GAL4 bait; PFKFB4-Nub prey) (enzyme, UniProt Q16877 1-469, looked up)
chain: MASPRELTQNPLKKIWMPYSNGRPALHACQRGVCMTNCPTLIVMVGLPARGKTYISKKLTRYLNWIGVPTREFNVGQYRRDVVKTYKSFEFFLPDNEEGLKIRKQCALAALRDVRRFLSEEGGHVAVFDATNTTRERRATIFNFGEQNGYKTFFVESICVDPEVIAANIVQVKLGSPDYVNRDSDEATEDFMRRIECYENSYESLDEDLDRDLSYIKIMDVGQSYVVNRVADHIQSRIVYYLMNIHVTPRSIYLCRHGESELNLKGRIGGDPGLSPRGREFAKSLAQFISDQNIKDLKVWTSQMKRTIQTAEALGVPYEQWKVLNEIDAGVCEEMTYEEIQDNYPLEFALRDQDKYRYRYPKGESYEDLVQRLEPVIMELERQENVLVICHQAVMRCLLAYFLDKAAEQLPYLKCPLHTVLKLTPVAYGCKVESIFLNVAAVNTHRDRPQNVDISRPPEEALVTVPAHQ
notes: 6-phosphofructo-2-kinase/fructose-2,6-biphosphatase 4 (PFKFB4), human, inserted in-frame into the MaMTH bait or prey vectors; One molecule for the differently tagged copies of the same protein; The bait copy carries Cub-GAL4; The prey copy carries Nub at its N- or C-terminus (both were tested against the PFKFB4 bait); also called hPFKFB4; source: MaMTH-modified HEK293T, transfected, in cells; not …
fold increase of luciferase expression over PFKFB4-Cub-GAL4 alone (Nub at the C-terminus of the prey): 13 times | fold increase of luciferase expression over PFKFB4-Cub-GAL4 alone (Nub at the N-terminus of the prey): 5 times
